System: tRNAThr
Experiment: Steady state aminoacylation assay
Format: biochemical, E. coli or human
Details: purified recombinant protein
Description: Steady State Aminoacylation Assay—
The aminoacylation activities of the TARS constructs were determined using modifications to established procedures (Francklyn et al 2008). Briefly, reaction mixtures consisted of 20 mM Tris-HCl pH 8.0, 100 mM KCl, 10 mM MgCl2, 1 mM dithiothreitol, 2 mM ATP, 2.5 U pyrophosphatase (Roche), 80 μM threonine, 20 μM [14C]-threonine, and 5 μM of E. coli or human tRNAThr. Reactions were initiated with the addition of 0.25-0.75 μM TARS and run at 37° C. Aliquots were taken at varying time points and spotted onto Whatmann 3MM paper filters pre-soaked in 5% trichloroacetic acid (TCA). Upon completion, the filters were washed 3 times in excess TCA, once in 95% ethanol, and dried under a heating lamp. The formation of Thr-tRNAThr was detected by scintillation counter and the activity determined by linear regression of threonyl-tRNAThr formed per active site per unit time.

B1: TARS: N-terminal His6-tagged human threonyl-tRNA synthetase expressed and purified from E. coli; SEQ ID NO:2 (protein, listed as Homo sapiens)
chain: MFEEKASSPSGKMGGEEKPIGAGEEKQKEGGKKKNKEGSGDGGRAELNPWPEYIYTRLEMYNILKAEHDSILAEKAEKDSKPIKVTLPDGKQVDAESWKTTPYQIACGISQGLADNTVIAKVNNVVWDLDRPLEEDCTLELLKFEDEEAQAVYWHSSAHIMGEAMERVYGGCLCYGPPIENGFYYDMYLEEGGVSSNDFSSLEALCKKIIKEKQAFERLEVKKETLLAMFKYNKFKCRILNEKVNTPTTTVYRCGPLIDLCRGPHVRHTGKIKALKIHKNSSTYWEGKADMETLQRIYGISFPDPKMLKEWEKFQEEAKNRDHRKIGRDQELYFFHELSPGSCFFLPKGAYIYNALIEFIRSEYRKRGFQEVVTPNIFNSRLWMTSGHWQHYSENMFSFEVEKELFALKPMNCPGHCLMFDHRPRSWRELPLRLADFGVLHRNELSGALTGLTRVRRFQQDDAHIFCAMEQIEDEIKGCLDFLRTVYSVFGFSFKLNLSTRPEKFLGDIEVWDQAEKQLENSLNEFGEKWELNSGDGAFYGPKIDIQIKDAIGRYHQCATIQLDFQLPIRFNLTYVSHDGDDKKRPVIVHRAILGSVERMIAILTENYGGKWPFWLSPRQVMVVPVGPTCDEYAQKVRQQFHDAKFMADIDLDPGCTLNKKIRNAQLAQYNFILVVGEKEKISGTVNIRTRDNKVHGERTISETIERLQQLKEFRSKQAEEEF
modifications: N-terminal His6 tag
aminoacylation activity: exhibits aminoacyl synthetase activity
